Data: patent EP4596582A1 (Sichuan Kelun-Biotech Biopharmaceutical Co., Ltd., dated 2025)

What was measured:
[1] = target: T1, human B7-H3 on human tumor cells (MCF-7, HT29, NCI-N87, HCC1806, HCC827) (human, UniProt Q5ZPR3 29-534); experiment: flow cytometry on HCC827 cells
T1 construct: whole, on cells
T1 sequence (looked up): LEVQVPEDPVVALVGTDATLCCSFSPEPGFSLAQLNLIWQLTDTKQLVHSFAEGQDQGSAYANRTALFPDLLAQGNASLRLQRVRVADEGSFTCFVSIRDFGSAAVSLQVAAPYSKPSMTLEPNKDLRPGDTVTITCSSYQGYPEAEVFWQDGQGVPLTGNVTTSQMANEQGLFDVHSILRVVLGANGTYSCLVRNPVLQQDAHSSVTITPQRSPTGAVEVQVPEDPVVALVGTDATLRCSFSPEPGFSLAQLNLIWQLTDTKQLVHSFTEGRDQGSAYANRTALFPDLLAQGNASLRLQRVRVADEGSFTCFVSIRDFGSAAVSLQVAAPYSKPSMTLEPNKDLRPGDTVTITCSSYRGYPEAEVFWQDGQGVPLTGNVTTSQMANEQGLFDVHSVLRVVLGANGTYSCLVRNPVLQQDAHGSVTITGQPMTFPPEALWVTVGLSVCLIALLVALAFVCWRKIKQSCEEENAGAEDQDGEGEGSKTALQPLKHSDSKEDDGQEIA

[2] = target: T2, human B7-H3-4Ig on CHO-S cells (CHO-S-human B7-H3-4Ig) (human, UniProt Q5ZPR3 29-534); experiment: cell-based or functional assay
T2 sequence (looked up): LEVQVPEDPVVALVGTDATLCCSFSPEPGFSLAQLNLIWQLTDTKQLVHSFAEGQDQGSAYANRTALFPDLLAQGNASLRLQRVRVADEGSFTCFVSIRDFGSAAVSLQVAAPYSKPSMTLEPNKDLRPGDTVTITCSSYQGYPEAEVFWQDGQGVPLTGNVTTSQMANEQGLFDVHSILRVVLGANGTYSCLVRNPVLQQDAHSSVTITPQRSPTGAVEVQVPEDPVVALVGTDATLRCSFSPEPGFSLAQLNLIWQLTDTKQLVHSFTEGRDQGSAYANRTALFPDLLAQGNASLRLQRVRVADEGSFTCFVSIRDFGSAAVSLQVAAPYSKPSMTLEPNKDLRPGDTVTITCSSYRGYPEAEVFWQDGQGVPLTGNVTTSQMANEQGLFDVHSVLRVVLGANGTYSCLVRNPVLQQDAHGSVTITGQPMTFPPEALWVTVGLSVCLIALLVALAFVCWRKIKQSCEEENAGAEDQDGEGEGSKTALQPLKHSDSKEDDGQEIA

B1: anti-human-B7-H3 human antibody 2#8890 (antibody, human IgG1, kappa, V domains shown)
VH: QVQLQESGPGLVQPSGTLSLTCAVSGGSDSSTNWWTWVRQSPGQGLEWIGEISPIGFTSYSPSLRSRVTISVDKSKTQFSLKLSSVTAADTAVYYCARDRLYFAFWGQGTLVTVSS
VL: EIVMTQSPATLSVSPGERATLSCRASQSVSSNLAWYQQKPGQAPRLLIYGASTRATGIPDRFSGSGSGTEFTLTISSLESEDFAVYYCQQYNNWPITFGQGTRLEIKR
- EC50 [1]: 0.0123 µg/mL
- CDC: EC50 of killing of target cell CHO-S-B7-H3-4Ig with 10% guinea pig serum complement [2]: 2.92 µg/mL
